The target of assay [1] is T1, human serum albumin (human, UniProt P02768 25-609).
T1 construct: Adsorbed on an unmodified silicon nitride sensor chip (HSA sensor chip) from a 0.2 µM solution; also called HSA
Kind of assay: reflection interference spectroscopy, HSA sensor chip, 1000 µM peptide.

In assay [2] the target is T1, human serum albumin. As to the kind of experiment: coefficient b of the two-exponential dissociation fit (Equation I), HSA sensor chip, 1000 µM peptide.
Assay [3] concerns the target T1, human serum albumin. As to the kind of experiment: reflection interference spectroscopy, HSA sensor chip, 2 µM peptide.
Method: Then, a running buffer (0.1 M sodium phosphate buffer (pH 6.9)) was injected into a flow path formed between the substrate and the flow cell at a flow rate of 100 μL/min for 30 minutes or more so as to equilibrate the surface of the substrate. […] In injecting the running buffer or the sample, a liquid feeding pump for high-performance liquid chromatograph [product name: Prominence UFLC, manufactured by Shimadzu Corporation] and an autosampler [product name: Chromaster, manufactured by Hitachi, Ltd.] were used. As a result, a solid phase carrier having HSA immobilized on the surface thereon (hereinafter also referred to as “HSA sensor chip”) was obtained. In injecting the HSA solution into the flow path, the wavelength variation Δλ of bottom wavelength of the spectral reflectivity curve of the reflected light when the flow path was irradiated with white light was measured with time, whereby a sensorgram showing the time-dependent change of the wavelength variation Δλ was obtained.
Assay [4] concerns the target T1, human serum albumin. As to the kind of experiment: reflection interference spectroscopy, HSA sensor chip, 10 µM peptide.
Method: (§1) The wavelength variation Δλ of the bottom wavelength of the spectral reflectivity curve of the reflected light (the layer thickness change amount Δλ) when the flow path was irradiated with white light was measured with time, whereby a sensorgram was obtained.
The target in assay [5] is T1, human serum albumin. Kind of assay: coefficient b of the two-exponential dissociation fit (Equation I), HSA sensor chip, 10 µM peptide.
Method: as §1
Assay [6] addresses T1, human serum albumin. As to the kind of experiment: reflection interference spectroscopy, HSA sensor chip, 10 µM lysozyme.
The target of assay [7] is T1, human serum albumin. As to the kind of experiment: reflection interference spectroscopy, HSA sensor chip, 100 µM peptide.
Method: as §1
Assay [8] addresses T1, human serum albumin. Kind of assay: reflection interference spectroscopy, HSA sensor chip, 50 µM peptide.
Assay [9] has as its target T1, human serum albumin. Kind of assay: reflection interference spectroscopy, HSA sensor chip, 1 µM peptide.

For the molecule (His) 3 (peptide), in the assay with human serum albumin [1], the off-rate constant (koff) worked out at 0.00257 s⁻¹ and the maximum layer thickness change amount Δλ was determined as 0.027 nm. Besides, the b value with human serum albumin [2] was found to be 0.344.

B1: ACTH partial peptide at the 1-41 positions (peptide)
peptide: GPSYSMEHFRWGKPVGKKRRPVKVYPNGAEDESAEAFPLEF
notes: Synthetic peptide from Biologica Co, Ltd; also called ACTH41
For the molecule B1, the binding result in the assay with human serum albumin [3] is reported as “binds”.
On to HHHHHHHHHH [(His) 10], for which, in the assay with human serum albumin [4], the koff came out at 0.00073 s⁻¹ and the “maximum layer thickness change amount Δλ” value is 0.086 nm. The b value with human serum albumin [5] was 0.093.
Consider HHHHHHHHHHHHHHHHHHHH (also called (His)20) [histidine eicosa peptide], for which, in the assay with human serum albumin [3], the binding result is given as “binds”.

B2: Lysozyme (enzyme)
chain: KVYGRCELAAAMKRLGLDNFRGYSLGNWVCAAKFESNFNTHATNRNTDGSTDYGILQINSRWWCNDGRTPGSRNLCNIPCSALLSSDTIASVNCAKKIVSDGNGMNAWVAWRKRCKGTDVNAWTRGCRL
Consider B2, for which the off-rate constant (koff) with human serum albumin [6] came to 0.0066 s⁻¹.
Take YSMEHFRWGKPVGKK [ACTH15]: in the assay with human serum albumin [4], the koff amounted to 0.0115 s⁻¹ and the “maximum layer thickness change amount Δλ” value turned out to be 0.061 nm. The molecule also yielded a b value in the assay with human serum albumin [5] of 0.029.
Take RRRRRRRRRR (also called (Arg)10) [arginine decapeptide]: the binding result in the assay with human serum albumin [3] is listed as “binds”.

B3: Kininogen (peptide)
peptide: HNLGHGHKHERDQGHGHQR
notes: Named as the protein, but a 19-residue peptide was used
For the molecule B3, the off-rate constant (koff) in the assay with human serum albumin [7] came out at 0.00493 s⁻¹.

B4: ACTH partial peptide at the 1-24 positions (peptide)
peptide: SYSMEHFRWGKPVGKKRRPVKVYP
notes: Synthetic peptide from Biologica Co, Ltd; also called ACTH24
In the case of B4, in the assay with human serum albumin [3], the binding result is reported as “binds”.

B5: inter-α-trypsin inhibitor heavy chain 4 (peptide)
peptide: GESRNRNVHSGSTFFKYYLQGAKIPKPEASFS
notes: Named as the protein, but a 32-residue peptide was used; also called ITIH4
Take B5: in the assay with human serum albumin [3], the binding result is reported as “binds”.
In the assay with human serum albumin [7], KKKKKKKKKK [(Lys) 10] showed a koff of 0.0002 s⁻¹.

B6: fibrinogen α (peptide)
peptide: DEAGSEADHEGTHSTKRGHAKSRPV
notes: Named as the protein, but a 25-residue peptide was used
In the case of B6, the binding result with human serum albumin [3] is “binds”.
In the case of AWAVARLSQRFPK [IS 13mer], the koff with human serum albumin [8] amounted to 0.0171 s⁻¹.
GVPGLGVGAGV [ELN 11mer]: the koff with human serum albumin [9] is 0.00016 s⁻¹.

Usually koff stands for the first-order rate constant of dissociation.
